The source of these data is US9873883B2, “Glyphosate resistant plants and associated methods” (Dow AgroSciences LLC, priority 2012, dated 2018).

This data set concerns C=C(OP(=O)(O)O)C(=O)O. The experiment in a line: In vitro kinetic assay (inorganic phosphate production, malachite green). It counts as biochemical, Mariprofundus ferrooxydans. Particulars: other: pH 7.5, 1 mM S3P.

In general, Km refers to the concentration of substrate that gives half-maximal velocity. On to “Mariprofundus ferrooxydans EPSP synthase DGT-14 variant DGT-14 v6 (G101A), SEQ ID NO:1 (Mariprofundus ferrooxydans PV-1; G101A)”, for which the Km was found to be 352.5 µM.
